Columns and labels:
[1] = target: T1, HBV envelope antigen (HBs370-79, genotype A/D) peptide on HLA-A*02:01 (human); test: cytokine release
T1 peptide: SIVSPFIPLL

[2] = target: T2, HBV envelope antigen (HBs370-79, genotype B) peptide on HLA-A*02:01 (human); test: cytokine release
T2 peptide: NILSPFMPLL

[3] = target: T3, HBV envelope antigen (HBs370-79, genotype C) peptide on HLA-A*02:01 (human); test: cytokine release
T3 peptide: NILNPFLPLL

[4] = target: T4, HBc18-27-HLA-A201 pentamer (PE-conjugated HLA-A2 class I pentamer bearing the HBc18-27 epitope, Proimmune) (Hepatitis B virus; human); test: flow cytometry, pentamer staining of transduced lymphocytes; the filing puts the difference down to expression of the Vα3 chain
T4 construct: also called HLA-A2 pentamer; HBc18-HLA-A201 pentamer

[5] = target: T5, HBV core antigen (HBc18-27, genotype B/C; 27I) peptide on HLA-A*02:01 (human); test: T cell clone or line
T5 peptide: FLPSDFFPSI

[6] = target: T6, HBV core antigen (HBc18-27, genotype B/C; 27I) peptide on HLA-A*02:06 (human); test: T cell clone or line
T6 peptide: FLPSDFFPSI

[7] = target: T7, HBV core antigen (HBc18-27, genotype B/C; 27I) peptide on HLA-A*02:07 (human); test: T cell clone or line
T7 peptide: FLPSDFFPSI

B1: HBs370-79 TCR (TCR, V domains shown)
Valpha: QKEVEQNSGPLSVPEGAIASLNCTYSDRGSQSFFWYRQYSGKSPELIMFIYSNGDKEDGRFTAQLNKASQYVSLLIRDSQPSDSATYLCAVNLYAGNMLTFGGGTRLMVKP
Vbeta: GAGVSQSPRYKVAKRGQDVALRCDPISGHVSLFWYQQALGQGPEFLTYFQNEAQLDKSGLPSDRFFAERPEGSVSTLKIQRTQQEDSAVYLCASSSDFGNQPQHFGDGTRLSIL
- binding result [1]: recognises
- binding result [2]: recognises
- binding result [3]: recognises

B2: HBc18-Opt-TCR (codon optimized HBc18-27 TCR, Vα3 / Vβ8.2) (TCR, V domains shown)
V domain 1: SQQGEEDPQALSIQEGENATMNCSYKTSINNLQWYRQNSGRGLVHLILIRSNEREKHSGRLRVTLDTSKKSSSLLITASRAADTASYFCATWLSGSARQLTFGSGTQLTVLP
V domain 2: DAGVIQSPRHEVTEMGQEVTLRCKPISGHDYLFWYRQTMMRGLELLIYFNNNVPIDDSGMPEDRFSAKMPNASFSTLKIQPSEPRDSAVYFCASSNRASSYNEQFFGPGTRLTVLE
notes: also called codon optimized TCR; HBc18-Opt-Vα3 and HBc18-Opt-Vβ8.2
- fold frequency of pentamer positive cells against HBc18-WT-TCR [4]: 2 fold

B3: HBc18-27 TCR (TCR, V domains shown)
Valpha: SQQGEEDPQALSIQEGENATMNCSYKTSINNLQWYRQNSGRGLVHLILIRSNEREKHSGRLRVTLDTSKKSSSLLITASRAADTASYFCATWLSGSARQLTFGSGTQLTVLP
Vbeta: DAGVIQSPRHEVTEMGQEVTLRCKPISGHDYLFWYRQTMMRGLELLIYFNNNVPIDDSGMPEDRFSAKMPNASFSTLKIQPSEPRDSAVYFCASSNRASSYNEQFFGPGTRLTVL
- peptide concentration still recognised [5]: ≤ 1 pM
- peptide concentration still recognised [6]: ≤ 1 pM
- peptide concentration still recognised [7]: ≤ 1 pM

— patent US20170202953A1 (AGENCY FOR SCIENCE TECHNOLOGY AND RESEARCH, published 2017)
